Read-outs that look alike come from different tables or passages of the source.
Assays:
Test in all cases: cryo-EM structure
[1] = molecular target: full-length wild-type calcium-sensing receptor from Gallus gallus (ggCaSR) (Gallus gallus)
[2] = molecular target: full-length wild-type calcium-sensing receptor from Gallus gallus (ggCaSR) (Gallus gallus); remark: listed apart in the source
[3] = molecular target: full-length wild-type calcium-sensing receptor from Gallus gallus (ggCaSR) (Gallus gallus); remark: listed apart in the source
[4] = molecular target: full-length wild-type calcium-sensing receptor from Gallus gallus (ggCaSR) (Gallus gallus); remark: listed apart in the source

stoichiometry N [1]: 2 | stoichiometry N [2]: 2 | stoichiometry N [3]: 2 | stoichiometry N [4]: 2
Substance: full-length wild-type calcium-sensing receptor from Gallus gallus (ggCaSR)

— article PMC8177707
